This series relates to Asp85. Briefly: UV-vis. Particulars: not stated (0.02% DDM solution; pH adjusted with small amounts of HCl or NaOH); Purified, detergent-solubilised holoprotein with all-trans-retinal; no carotenoid; light adaptation not stated.

As usually defined, the pKa is the negative logarithm of the acid dissociation constant. Lower therefore signals a stronger acid or weaker base. Substance “Actinorhodopsin ActR-13023 E96Q (Candidatus Aquiluna sp. IMCC13023; E96Q)” displayed a pKa of 7.67.

For the substance “Actinorhodopsin ActR-13023 (Candidatus Aquiluna sp. IMCC13023)”, the pKa result is reported as “≈ 7.81”.

Source of the values: paper PMC8113403, “Assembly of Natively Synthesized Dual Chromophores Into Functional Actinorhodopsin” (Frontiers in Microbiology, 2021).
